Measured values reported in the DeepSol protein solubility set.

assay: soluble on expression in E. coli; label from the status in PepcDB or PDB records

Sequence | soluble on expression in E. coli
SQHFGRPRTTHEFLFGALAELVDNARDADATRIDIYAERREDLRGGFMLCFLDDGAGMDPSDAASVIQFGKSAKRTPESTQIGQYGNGLKSGSMRIGKDFILFTKKEDTMTCLFLSRTFHEEEGIDEVIVPLPTWNARTREPVTDNVEKFAIETELIYKYSPFRTEEEVMTQFMKIPGDSGTLVIIFNLKLMDNGEPELDIISNPRDIQMAETSPEGTKPERRSFRAYAAVLYIDPRMRIFIHGHKVQTKRLSCCLYKPRMYKYTSSRFKTRAEQEVKKAEHVARIAEEKAREAESKARTLEVRLGGDLTRDSRVMLRQVQNRAITLRREADVKKRIKEAKQRALKEPKELNFVFGVNIEHRDLDGMFIYNCSRLIKMYEKVGPQLEGGMACGGVVGVVDVPYLVLEPTHNKQDFADAKEYRHLLRAMGEHLAQYWKDIAIAQRGIIKFWDEFGYLSANWNQPPSSELRYKRRRAMEIPTTIQCDLCLKWRTLPFQLSSVEKDYPDTWVCSMNPDPEQDRCEASEQKQKVPLGTFRKDMKTQEEKQKQLTEKIRQQQEKLEALQKTTPIRSQADLKKLPLEVTTRPSTEEPVRRPQRPRSPPLPAVIRNAPSRPPSLPTPRPASQPRKAPVISSTPKLPALAAREEASTSRLLQPPEAPRKPANTLVKTASRPAPLVQQLSPSLLPNSKSPREVPSPKVIKTPVVKKTESPIKLSPATPSRKRSVAVSDEEEVEEEAERRKERCKRGRFVVKEEKKDSNELSDSAGEEDSADLKRAQKDKGLHVEVRVNREWYTGRVTAVEVGKHVVRWKVKFDYVPTDTTPRDRWVEKGSEDVRLMKPPSPEHQSLDTQQEGGEEEVGPVAQQAIAVAEPSTSECLRIEPDTTALSTNHETIDLLVQILRNCLRYFLPPSFPISKKQLSAMNSDELISFPLKEYFKQYEVGLQNLCNSYQSRADSRAKASEESLRTSERKLRETEEKLQKLRTNIVALLQKVQEDIDINTDDELDAYIEDLITKGD | soluble
MAGDPMFKLKINNFQLGFKLVQWPVTNHLLKHFYVFPINNKGGLAIKRIISLALFKKRLNKDKINNCHVWEEELPDGSYDMGFNGNFNHMEKRKSGYVTQKQFSEFKDANNQRLIKIETTLAIQGEQINKLTQTVEKQGEQINQLVQVVLLQGASKLENFKWSKKHKDKSLMPAWIVWKIFWWKVLEHHHHHH | not soluble
MADVKEKINLLDVIPFRSENITAEKGSDGTVTIAFPRFKYEWMRRFLLPKGMSADIHVRLEDHGTAVWELIDGKRTVRRIIEELAEHFNYEENYESRITAYITQLQKDGFVKLVIEN | not soluble
MGSSHHHHHHSSGLVPRGSHMKMSFRWYGKKDPVTLEEIKAIPGMQGIVTAVYDVPVGQAWPLENILELKKMVEEAGLEITVIESIPVHEDIKQGKPNRDALIENYKTSIRNVGAAGIPVVCYNFMPVFDWTRSDLHHPLPDGSTSLAFLKSDLAGVDPVADDLNLPGWDSSYSKEEMKAIIENYRQNISEEDLWANLEYFIKAILPTAEEAGVKMAIHPDDPPYGIFGLPRIITGQEAVERFLNLYDSEHNGITMCVGSYASDPKNDVLAMTEYALKRNRINFMHTRNVTAGAWGFQETAHLSQAGDIDMNAVVKLLVDYDWQGSLRPDHGRRIWGDQTKTPGYGLYDRALGATYFNGLYEANMRAAGKTPDFGIKAKTVGTKEG | soluble
SQQALRILEVRSAYCKNDFEWDNMKRLAFKNVDDSNTRLMREYVLETSHVETDSDK | soluble
MNSRQQTILQMVIDQGQVSVTDLAKATGVSEVTIRQDLNTLEKLSYLRRAHGFAVSLDSDDVETRMMSNYTLKRELAEFAASLVQPGETIFIENGSSNALLARTLGEQKKNVTIITVSSYIAHLLKDAPCEVILLGGVYQKKSESMVGPLTRQCIQQVHFSKAFIGIDGWQPETGFTGRDMMRTDVVNAVLEKECEAIVLTDSSKFGAVHSYSIGPVERFNRVITDSKIRASDLMHLEHSKLTIHVVDILEHHHHHH | soluble
MGSDKIHHHHHHMFYYNQYVRAQSLDEAYELYQKKPNFVLGGMLWLKMKNKTLGTAIDLCDLGLDQIDEDENEFRIGAYATLRQIETHEALNAYTHGAIAESVRHIVGVQFRNVATVGGSIWGRFGFSDVMTIFRALGAKVQLHKAGIMDLDEFAALPRTTRDVLVSVIVPKNAKGVVYLSQRNQSTDFPVLTCAVANRSGRYVAVIGASPYMAEPVWDEDGILDGIADAKTDGNAALTDNSETNAKIDKFAEYVAEHIRFGSNIRAGAEYREIICRVLTRRAVTQSLDICDDIKHEH | not soluble
MEDRNITEEDRVCPQLPEFDEQANVQTDLKKMKPGDAIGKNWKVVKAIQSDKGFNTIYVAEHVQKKKKMAAVKVERKTEAIKMLQFELFVLLTVEKKNQCKQFCKLFEKGNEKEYNWIAITLCGKSLRALRKNQPTGKLTVACGLSVAQQCLKGLEELHRMGFIHRNVAPSVFAIGRYTGDNQSDLRNIYILDFGFAHQYMIKDGTLKPPSAHPWKYVGSLRHMPRAAYSKVEFSRMEDLEMWFYMSVELVKGCLPWAHLKKPKEVHDYQKLCRNGLQMREMLGGLPPEFVDIMQIVDKLSFTDTPNYTEIYGLLTNAILFSGKNEFPYDWEEAEINEFKNPQKPSVEQAT | not soluble
INYRCPKRVITLINNIRKGDDQNVQVPKEDAIDGFVRLFIVDSNTTDKLELENKIRFQMAMLTHDEDWNIAEEVKTLTLEHDMAASRGGFDEFLLPLSSVSSLRDAALNGTSKNINFITSTLLPFIDAVEKDDSFEVARIIKSGSLLISDSNQSFLLNPIGTLKDIDSNVVEFKKILVNGKVTLHNVLSTIQKFELLSLPDELLVYLSDIEQGEPNEPESDTKLLSDVDKAWGLALNSSIGHVKNYAKYVNETLGYATHQGVKGLEYKRVMAVLDDKFKGFLFDYEKLFGAKDLTKKDIENEDLGKDSALSRTRRLFYVICSRAEQSLAVVAYSNDPIAIEKTAIESEWFSKDEIVLI | not soluble
MNSSLKNLLNNKILVLDGAMGTCIQSFNLDEGDFKGSLSCTCHSNQKGNNDVLNLTKPEIIKEIHKRYLEAGADIIETNTFNATEISQKDYNMQDKIYDINFKGAKLAKEACTYYTKLNPNKPRFAAGSIGPTNRTASLSPDVENPGFRNVTFDELCNAYKHQIEALIDGGVDLLLIETIFDTLNARAAIFAAETVFENKKIKLPIIISGTIADKSGRILSGQTLDAFAESLKNENIIAIGLNCSFGAEELIPFIKRLSETQNRYISFHPNAGLPNSLGEYEELPEETASIVKKLALEGHLNIVGGCCGTTPEHIRAISSVVKGISPRKVPNLEPKTIYSGLENIKIDKNSNFINIG | not soluble
MDTAGDTKTTDDGGVVNITYMHRLPDSEGMTLVNDIVAKWNKQHPDIQVKATKFDGKASDMIKKLETDVKSGEAPDLAQVGYAELPEVFTKGLLQDVTQYAEQYKNDFASGPYSLVQVGGKAYGLPQDTGPLVYFYNKAEFEKLGITEIPQTADEFIAAAKTAAAAGKYIMSYQPDEAGNMISGLAGASGGWYKVKGDSWVVNTETDGSKATADFYQQLLDAKAATTNPRWDPSFDASIKDGSLIGTVAAAWEAPLFMTSSGGTGSGEWQVAQLGDWFGNAGKTGPDGGSAVAVLKNSKHPKEAMEFLDWFNTQVPDLVSQGLVPAATTEDAETPSEWSTFFGGQDIMKEFKTANNNMGDFTYMPGFSAVAAKMNETAAKATDGSGKVADIFSDAQTTSVDTLKNFGLSVSE | soluble
MGSDKIHHHHHHMRKVGMTTTIPVEVVYAAGLIPVDLNNIFVTHENPQSLVEEAEMAGYPRNLCAWIKGLYSTILQNDDIQTLIAVTQGDCSNTHALMETLEMAGVNVIPFAFPFDRDYDLLKLQMEKLINTLGTTWDEVYHAKKRLDAIRSKVHELDRLTWQGDRVRGWDNHLYQVCCSDLEGDPEDFGRRVDQYLAELPAKEPIKAKVRLAYIGVPPIMDDLYDYVEERGARVVFNEVQRQFTMPFATDDIVEQYRIYSYPYGIFYRLQDISRELEQRQVDGVIHYAQSFCYRQIEDLIVRQKLKYPILTLEGDKPNKLDARTRMRLDAFLDMLR | not soluble
MEAWKKKKGLFKGARYQCTLEPIEREVLGNLAANISEVLISRAQSAPKDELAELTGMGGGHTEAPEDPGLARLLPDFEMQGDEEFDGDNSLLRSLHENDITRAKLANLQTIGQALGPDGSVFVTVTEEEAQAWVAGLNDIRLYLASSEVQDTEDRDALVEWLAFAQESLLTAMMGSLD | not soluble
MSDHPGPGAVTPELFGVGGDWLAVTAGESGASVFRAADATRYAKCVPAADAAGLEAERDRIAWLSGQGVPGPRVLDWYAGDAGACLVTRAVPGVPADRVGADDLRTAWGAVADAVRRLHEVPVASCPFRRGLDSVVDAARDVVARGAVHPEFLPVEQRLVPPAELLARLTGELARRRDQEAADTVVCHGDLCLPNIVLHPETLEVSGFIDLGRLGAADRHADLALLLANARETWVDEERARFADAAFAERYGIAPDPERLRFYLHLDPLTWG | not soluble
MSSRKQGSQPRGQQSAEEENFKKPTRSNMQRSKMRGASSGKKTAGPQQKNLEPALPGRWGGRSAENPPSGSVRKTRKNKQKTPGNGDGGSTSEAPQPPRKKRARADPTVESEEAFKNRMEVKVKIPEELKPWLVEDWDLVTRQKQLFQLPAKKNVDAILEEYANCKKSQGNVDNKEYAVNEVVAGIKEYFNVMLGTQLLYKFERPQYAEILLAHPDAPMSQVYGAPHLLRLFVRIGAMLAYTPLDEKSLALLLGYLHDFLKYLAKNSASLFTASDYKVASAEYHRKALLEHHHHHH | not soluble
GMSNLETAKAMIAAYNAQDVDTYVSYMTDDACEANYRGDVVREGKEGTRSGLAAAFARWPQNHAEIKDAQQVGTYVLMREHVTRGPATDGSPLVEPFDVVAVYSFEGDKCSRVEFIR | soluble
MSLHVKVIVFGGSGFLGSHLVNRLDADEMVYFSLEKGNSVTRKDAKWVSGDVTDYSKVAEAMKDVDVAIFAVEDWNADEKRNREILLDGIKNVVNAVKANNTEQKVVSFSIINHPSYPLEFFRTKRLVEDNTRVLKNGLVVRLSFLFGEGDHFTDRFRKLSERVGHLSPEGNLAPVYVDDVVKVVNSILKREGVYDICSNDNLPLIKIVNYIRKMNGKKEIGETKLEKAISAVVETGLFAEYEAHLLFQDYYRETNILDRYVKDPLSYLDFLRGISVTHTTEGHHHHHH | soluble
MSLPAPQDPRNLPIRQQMEALIRRKQAEITQGLESIDTVKFHADTWTRGNDGGGGTSMVIQDGTTFEKGGVNVSVVYGQLSPAAVSAMKADHKNLRLPEDPKTGLPVTDGVKFFACGLSMVIHPVNPHAPTTHLNYRYFETWNQDGTPQTWWFGGGADLTPSYLYEEDGQLFHQLHKDALDKHDTALYPRFKKWCDEYFYITHRKETRGIGGIFFDDYDERDPQEILNMVEDCFDAFLPSYLTIVKRRKDMPYTKEEQQWQAIRRGRYVEFNLIYDRGTQFGLRTPGSRVESILMSLPEHASWLYNHHPAPGSREAKLLEVTTKPREWVKEGHHHHHH | soluble
RSEMHEECSPDFTAQFHLAAEHTAHIFQHLPETEPDDFQTALDTLRGELDTLRTHSSGTQSHILLQQLQLIARQLEPYYRAYRQIPHRQPQNAA | not soluble
YSVTVKWGKEKFEGVELNTDEPPMVFKAQLFALTGVQPARQKVMVKGGTLKDDDWGNIKMKNGMTVLMMGSADALPEEPSAKT | soluble
KKEDIVRIHASSGTSGKPTVVGYTAKDIETWSDLIARSLTMIGLSKGDTIQNSMNYGLFTGGLGFHYGVERMGAMIVPAATGNTARQLEMMIDFGVTAVHCTPSYAFYLAETAEELDLIDKLSLKAAIFGGEPWSENTRKQLEKRLNLKAYDCYGLSEMFGPGVGFECQEQDGLHIW | not soluble
